Measured values reported in patent US7396905B1, “Calcipressins: endogenous inhibitors of calcineurin, uses and reagents related thereto” (priority 1999, dated 2008).

Legend:
[1] = system: calcineurin A and B subunits produced by in vitro translation; experiment: In vitro binding of GST fusion proteins to 35S-labelled calcineurin subunits; conditions: GST fusion proteins purified from E. coli
Protocol: 5A. […] Associated calcineurin subunits were detected and quantified by SDS-polyacrylamide gel electrophoresis and autoradiography. The same deletion mutants were co-expressed with GFP-NF-AT4 in BHK cells and assayed for their ability to block calcium ionophore-stimulated NF-AT4 nuclear import.
Purified GsT-Csp1 and -Csp2 fusion proteins were mixed with calcineurin in vitro translation lysates in buffer A (50 mM Tris-HCl, pH7.5, 140 mM NaCl, 1 mM CaCl2, and 0.4% Triton X-100), incubated for 60 minutes at 4 degrees, and absorbed with glutathione-agarose beads. The agarose beads were washed three times with buffer A, resuspended in 2×SDS sample buffer, and fractionated on SDS-polyacrylamide gels. Dried gels were analyzed by the phosphoImager to detect and quantify GsT-Csp1 or -Csp2-associated calcineurin subunits.

[2] = system: calcineurin-dependent nuclear import of NF-AT4; experiment: Calcineurin-dependent NF-AT4 nuclear import assay in BHK cells; type: cell-based, baby hamster; conditions: co-expressed with GFP-NF-AT4 in BHK cells; calcium ionophore
Protocol: This assay monitors the subcellular location of GFP-tagged NF-AT4, a transcription factor that resides in the cytoplasm of unstimulated BHK cells. Following stimulation of BHK cells with ionomycin, a calcium ionophore, GFP-NF-AT4 translocates to the nucleus with a t1/2 of five minutes. This translocation event is accompanied by a dephosphorylation of NF-AT4 in a process dependent on calcineurin.
Baby hamster kidney cells were grown on sterile glass coverslips in DMEM media with 10% fetal calf serum and transfected using calcium phosphate methods (Heald et al., 1993). […] NF-AT4 expression was based on the vector pcDNA3-GFP-NF-AT4 (Shibasaki et al., 1996). Transfected cells were grown for 18 hours prior to drug treatments. Cells were fixed 30 minutes after ionomycin (0.5 uM) treatment or washout using 3% formaldehyde in PBS for 10 minutes at room temperature.

B1: Csp1 1-100: Csp1 lacking the C-terminal half (protein)
chain: MEEVDLQDLPSATIACHLDPRVFVDGLCRAKFESLFRTYDKDTTFQYFKSFKRVRINFSNPLSAADARLRLHKTEFLGKEMKLYFAQTLHIGSSHLAPPN
modifications: left off: a dimerising Fc or GST
notes: Csp1 lacking the C-terminal half
[1]
  interaction with calcineurin in vitro: no obvious interaction with calcineurin in vitro
[2]
  inhibition of NF-AT4 nuclear import stimulated by calcium ionophore: fails to block calcium-activation NF-AT4 nuclear import
